System: MS2 coat protein
Assay: apparent KD of MS2 coat protein; designed switch direction (-1 OFF switch, 1 ON switch): -1; higher = weaker reporter binding
Summary of the method: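 The buffer was Tris-HCl pH 7.5 with KCl, MgCl2, BSA, DTT, tRNA and Tween-20. In it, SNAP-549-labelled MS2 coat protein was titrated in doubling steps from 0.7 or 1.5 nM to 3 µM over chip-bound RNA switches transcribed by stalled E. coli RNA polymerase on Illumina chips. Apparent KD is the per-design median over clusters of curve fits to normalised fluorescence.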

[1] = input ligand: microRNA oligo, concentration not stated
[2] = Eterna round: R95, input ligand: microRNA oligo, concentration not stated

Sequence	apparent KD of MS2 coat protein (input ligand: FMN 200 uM) [nM]	apparent KD of MS2 coat protein [1] [nM]	apparent KD of MS2 coat protein (input ligand: none) [nM]	apparent KD of MS2 coat protein [2] [nM]
ACAUGAGGAUCACCCAUGUGACAAUAAUGGCUGAUACAGAGACAGGAUAUACGUGAAUAUCUAACGUAGAAGGGUCAUGACUGG [Deportation 70 - Jieux - Exclusion NG 3] (Eterna round: R96, puzzle: Exclusion NG 3)	30.5	35.8	41.9	
GCACGGAGUGUAGGAUAUCUGUGCGAUUAGCUCAGAGAAGGACACAUGAGGAUCACCCAUGUGUUCCACGGAAACGUUCCGUGC [Eli exng1 - 049] (Eterna round: R96, puzzle: Exclusion NG 1)	8.96	7.93	11.9	
CUUUUGUGAGGAUAUUAGUAGUAAAUAAAUAAAAUUACUACUGAGAAGGCACAUGAGGAUCACCCAUGUUCCUC [Salish 062 v16] (Eterna round: R97, puzzle: Exclusion 4)	358		42.9	
CUGCUCCGUGUAGGAUAUGCCCGCACCACCCGGGCAGAAGGACAUGAGGAUCACCCAUGUAUGUUAUUAUCACGUGUGGCGCGC [Design 39] (Eterna round: R96, puzzle: Exclusion NG 1)	23.7	11.7	16.4	
AGGCUGUCAGGAUAUCUGCGCCGCUGUACGCGGCGUUAUAAAGAGAAGGGACAUGAGGAUCACCCAUGUCCUCA [EX4 B.14] (Eterna round: R97, puzzle: Exclusion 4)	109		19.5	
CCUCAGUAAGGAUAUCAGCUUAUAAGGUUGGUAAUGAGAGCUGAGAAGGUACAUGAGGAUCACCCAUGUUAGUU [JL Zatite mod 6] (puzzle: Exclusion 4)				26.7
CAACCACGUGCAGGAUAUGCGAAGUGAUUCGGUGGUACCACAGCGUAAACAUGAGGAUCACCCAUGUAGAAGGGCAUGAGGGCU [Eternabot solution 16] (Eterna round: R96, puzzle: Exclusion NG 2)	352	119	123	
AUUUACGGAGGAUAUACUUGAGGAUCACCCAAGUGGAGUCCCGUUUGGGCGGUAAAUAGUAGAAGGCCGUCCCA [jl-ex3-4.45 ViennaUCT mod] (Eterna round: R97, puzzle: Exclusion 3)	20.2		13.3	
ACGCUCCGUGUAGGAUAUCGCCGUACCACUCGGCGAGAAGGACAUGAGGAUCACCCAUGUAUGUUAUUAUCACGUGUGGCGCGC [Design 51] (Eterna round: R96, puzzle: Exclusion NG 1)	25.5	15.2	19.9	
AGUAUGUCAGGAUAUCUCGGGUAGUCGACAACGGCUACCGAAGAGAAGGGACAUGAGGAUCACCCAUGUACCAU [EX4 B.26] (Eterna round: R97, puzzle: Exclusion 4)	28.3		24.9	
CUUUUUUUUGUGAGGAUAUACUGUUAUUAAAGUUAGUAGAAGGUACAUGAGGAUCACCCAUGUUAAUUACUUUA [JR_BME4_Sub050] (puzzle: Brourd's mod of Exclusion 4)				12.9
ACAUGAUGCUUAGGAUAUGUUCUUACGCCAUGAAUAGAAGGGAGCGGACAGAAGUGACCUGACAUGAGGAUCACCCAUGUCUAA [Isusus] (Eterna round: R96, puzzle: Exclusion NG 1)	84.4	48	80.3	
AAUAAUAAGGAGGAUAUCGUAUCGGAAACGAUACGAGAAGGUCUAACAUGAGGAUCACCCAUGUUCCUCAAUAA [Fiskers Ex 6 - 1] (puzzle: Exclusion 6)				33.6
CCUCAGUAAGGAUAUCAGCUUAUAGAGUUGGUAAUGAGAGCUGAGAAGGUACAUGAGGAUCACCCAUGUUAGUU [JL Zatite mod 3] (puzzle: Exclusion 4)				23.5
UCUGGGUCUGUGAGGAUAUCGGGCCCGAAAGGGCCCGAGAAGGCACAUGAGGAUCACCCAUGUAAGGGCUCGGG [-38.4, -36.3 kcal, A 23%, 0-7bis] (Eterna round: R97, puzzle: Brourd's mod of Exclusion 4)	20.3		25	
GCACGAAGUGUAGGAUAUCUGUGCGAUUAGCUCAGAGAAGGACACAUGAGGAUCACCCAUGUGUUCCGCGGAAGCAAAACGUGC [Eli exng1 - 056] (Eterna round: R96, puzzle: Exclusion NG 1)	11.2	9.08	11.4	
UCGGCGCGAGGAUAUACGUUUGCGCUUUUUCGUUUUUGUGUACAUGAGGAUCACCCAUGUAGAAGGCGCGCCGC [Apr-15 SS2-18] (puzzle: Exclusion 2)				14.9
GUUUUCAGACGGAGAUCCUACAUGAGGAUCACCCAUGUCUCUCUAGCUAAUUGCUCGUCUUAUUCUCCUCUGUUCUC [Elimod 38 - Jieux - Sensor, turn-off variant 1] (Eterna round: R97, puzzle: Sensor, turn-off variant 1)	40		47.5	
UUAUGACAUGAGGAUCACCCAUGUAAGGAUAUCGAAGGAGAUGGUUACGAGGCCGCUACGAGAAGGUACGCGGG [Eternabot (L2) Solution 23] (Eterna round: R97, puzzle: Exclusion 1)	161		109	
AGUAACAGAGGAUAUACUAUUUUAUGUGUUUAUUGUUUUAAACAUGAGGAUCACCCAUGUAGAAGGCUGAAUAA [JMF 86] (puzzle: Exclusion 2)				28.4
GCUGGUCGAGGAUAUACAUGAGGAUCACCCAUGUGAUCAGCAGUCCUCGGACUGCAAUGUAGAAGGUGACCAGC [E3/1-B1] (Eterna round: R97, puzzle: Exclusion 3)	583		2270	
GUGUACAGAGGAUAUAUAUGAGCUAGGAAACUAGCAAGAUCACAUGAGGAUCACCCAUGUAGAAGGCUGUACAC [Ex2: 735] (Eterna round: R96, puzzle: Exclusion 2)		102		
AUACCACGAGGAUAUCGUCUCUCCCACAUGAGGAUCACCCAUGUUAUCCAUGUUUCGUUUCGAGAAGGCGUGGGUU [JR_E5_Sub072] (puzzle: Exclusion 5)				58.7
UACAAGCUUUGGCGAUCCUACAUGAGGAUCACCCAUGUGGGCCCGCCAGAGGCGGGCCCAUUUGCCCGUCUUGUGAA [Energy optimization 2] (Eterna round: R97, puzzle: Sensor, turn-off variant 1)	16.3		16.3	
CUCAUUUGUCAGGAUAUCGUGAGGCUAAUUAUACGAGAAGGGACGACAUGAGGAUCACCCAUGUGGUCUUUGAG [JR_Ex6_Sub082] (Eterna round: R97, puzzle: Exclusion 6)	161		33.3	
ACAGGUUAAGGAUAUACAUGAGGAUCACCCAUGUCGAGUAUCUUGUCAUGCCGCCCAUGUAGAAGGUAACAUGG [Geale] (puzzle: Exclusion 3)				14.3
GAUGAGAGAGGAUAUACAUGAGGAUCACCCAUGUAAUUUUCGGACAUGGAAGCUGGAUGUAGAAGGCUCGCAUG [Leritete] (puzzle: Exclusion 3)				19.6

— the supplement of paper PMC9170038
